Data from US20200270588A1, “GLUCOSYL TRANSFERASE POLYPEPTIDES AND METHODS OF USE” (Syngenta Participations AG, priority 2017, published 2020).
Where a chain is given by its changes, count along the chain named. Names may count otherwise.

B1: A432Q: bx9 SEQ ID NO:1 mutant (protein)
chain: MASSRTGAGAGGRVVVFPFPFQGHFNPVMRLARALHARGLAITVFHSGALDPADYPADYRFVPVTVEADPKLLASEDIAAIVTTLNASCDAPFRARLSALLAAEGRDSVRCVFTDVSWNAVLTASSDLGVPALGMMTASAASLRDYMAYRTLIDKGYLPVKEERKEDPVPELPPYLVKDLLRVDTSDLEEFAELLARTVTAARRASGLIFNTFPLIETDTLAEIHKALSVPVFAVAPLNKLVPTATASLHGVVQADRGCLQWLDTQQPGSVLYVSFGSMAAMDPHEFVELAWGLADSKRPFVWVVRPNLIRGFESGALPDGVEDEVRGRGIVVAWAPQEEVLAHPAVGGFLTHNGWNSTVEAISEGVPMVCCPRHGDQFGNMRYVCDVWKVGTELVGEQLERGQVKAAIDRLFGTKEGEEIKERMKEFKIAQAKGIGIGVDVDETASPRTDLTDLVDLIKSF
modifications: Zea mays
B2: E339A (protein)
chain: B1 chain with M279F, E339A, H375Y, Q432A
modifications: C-terminal His tag; Zea mays
B3: A432T: bx9 SEQ ID NO:1 mutant (protein)
chain: B1 chain with Q432T
modifications: Zea mays
B4: A432V: bx9 SEQ ID NO:1 mutant (protein)
chain: B1 chain with Q432V
modifications: Zea mays
B5: A432N: bx9 SEQ ID NO:1 mutant (protein)
chain: B1 chain with Q432N
modifications: Zea mays
B6: A432H: bx9 SEQ ID NO:1 mutant (protein)
chain: B1 chain with Q432H
modifications: Zea mays
B7: A334K: bx9 SEQ ID NO:1 mutant (protein)
chain: B1 chain with A334K, Q432A
modifications: Zea mays
B8: V370L: bx9 SEQ ID NO:1 mutant (protein)
chain: B1 chain with V370L, Q432A
modifications: Zea mays
B9: V370T: bx9 SEQ ID NO:1 mutant (protein)
chain: B1 chain with V370T, Q432A
modifications: Zea mays
B10: I363V: bx9 SEQ ID NO:1 mutant (protein)
chain: B1 chain with I363V, Q432A
modifications: Zea mays
B11: A281L: bx9 SEQ ID NO:1 mutant (protein)
chain: B1 chain with A281L, Q432A
modifications: Zea mays
B12: I363C: bx9 SEQ ID NO:1 mutant (protein)
chain: B1 chain with I363C, Q432A
modifications: Zea mays
B13: I363W: bx9 SEQ ID NO:1 mutant (protein)
chain: B1 chain with I363W, Q432A
modifications: Zea mays
B14: A280V: bx9 SEQ ID NO:1 mutant (protein)
chain: B1 chain with A280V, Q432A
modifications: Zea mays
B15: A281S: bx9 SEQ ID NO:1 mutant (protein)
chain: B1 chain with A281S, Q432A
modifications: Zea mays
B16: A281T: bx9 SEQ ID NO:1 mutant (protein)
chain: B1 chain with A281T, Q432A
modifications: Zea mays
B17: I363A: bx9 SEQ ID NO:1 mutant (protein)
chain: B1 chain with I363A, Q432A
modifications: Zea mays
B18: I363F: bx9 SEQ ID NO:1 mutant (protein)
chain: B1 chain with I363F, Q432A
modifications: Zea mays
B19: A281V: bx9 SEQ ID NO:1 mutant (protein)
chain: B1 chain with A281V, Q432A
modifications: Zea mays
B20: V370C: bx9 SEQ ID NO:1 mutant (protein)
chain: B1 chain with V370C, Q432A
modifications: Zea mays
B21: V370M: bx9 SEQ ID NO:1 mutant (protein)
chain: B1 chain with V370M, Q432A
modifications: Zea mays
B22: I363S: bx9 SEQ ID NO:1 mutant (protein)
chain: B1 chain with I363S, Q432A
modifications: Zea mays
B23: I363T: bx9 SEQ ID NO:1 mutant (protein)
chain: B1 chain with I363T, Q432A
modifications: Zea mays

Assay: UDP luminescence plate assay of E. coli extracts, mutants within SEQ ID No: 17, 2 mM metribuzin
Type: biochemical, Zea mays
Conditions: 2 mM metribuzin vs DMSO control, same mutant

Molecule | RATIO of the metribuzin signal to the DMSO signal
B1 | 1.20
B2 | 1.53
B3 | 1.17

Same assay, conditions: 2 mM metribuzin; relative to SEQ ID No: 17 control

Molecule | SIGNAL: metribuzin signal of mutant divided by the signal of the SEQ ID No. 17 control
B1 | 4.09
B2 | 2.01
B4 | 3.88
B5 | 4.21
B6 | 3.44
B3 | 3.57

Same assay, conditions: additional mutations within SEQ ID No: 17; DMSO in place of metribuzin

Molecule | luminescence signal in the DMSO control
B1 | 6.22E+06
B2 | 2.39E+06
B4 | 5.69E+06
B5 | 6.13E+06
B6 | 6.08E+06
B3 | 5.56E+06

Same assay, conditions: additional mutations within SEQ ID No: 17; control = SEQ ID No: 17; 2 mM metribuzin

Molecule | luminescence signal observed with 2 mM metribuzin
B1 | 7.46E+06
B2 | 3.66E+06
B4 | 7.07E+06
B5 | 7.67E+06
B6 | 6.28E+06
B3 | 6.51E+06

Assay: UDP luminescence plate assay of E. coli extracts, mutants of SEQ ID No: 1, 2 mM metribuzin
Type: biochemical, Zea mays
Conditions: 2 mM metribuzin
Method in brief: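 Extracts of E. coli BL21 DE3 expressing C-terminally His-tagged SEQ ID NO:1 variants incubated with 2 mM metribuzin; UDP formed read by UDP-Glo luminescence against a UDP standard curve, with optional 95 C stop. Mutants ranked by metribuzin/DMSO signal ratio and signal increase over wild-type bx9.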

Molecule | factor of increased signal relative to the bx9 w/t control signal (first parentheses) | ratio of activity with metribuzin relative to activity with DMSO (second parentheses)
B1 | 6 | 1.35
B3 | 3.5 | 1.35

Assay: UDP luminescence plate assay of E. coli extracts, saturation mutants of SEQ ID NO: 1, herbicide V
Type: biochemical, Zea mays
Conditions: improvement factor relative to w/t bx9 = 1.0, rounded to nearest 0.5; extract activity basis; compound V
Protocol: Competent BL21 (DE3) cells are transformed as in the foregoing examples and, following seed culturing, grown and autoinduced in plates in a 0.5-1 ml volume of autoinduction medium containing 50 ug/ml kanamycin. Plates are incubated at 37° C. and shaken at 900 rpm. Growth is monitored by taking 20 ul aliquots, diluting 10 fold into flat-bottomed 96 well microtiter plates and reading OD600n at t=0, 1, 2, 2½ and 3 hours if necessary. At a (corrected) OD600 nm˜0.2, plates are transferred to 20° C. and shaken overnight at 900 rpm in a Jencons VWR plate incubator. After ˜18-20 h the final OD600 readings are recorded and the plates centrifuged at 4600 rpm (bench top centrifuge) for 10 min at 4° C. The supernatant is discarded and the pellets then washed with 0.25 ml PBS by repeat centrifugation and removal of supernatant before freezing cell pellets at −80° C. To prepare extracts, plates are allowed to thaw for 30 min and then pellets are resuspended in 0.25 ml of a suitable lysis buffer (for example—50 mM Tris HCL buffer at pH 8.0, 5% glycerol containing 50 mM NaCl and lysonase) mixed, incubated at room temperature for a sufficient time for lysis to be near complete and then centrifuged to remove cell debris and 100 ul of supernatant extract removed to a 96 well V-shaped well plate and stored on ice prior to assay.
Optionally plate assays are stopped with brief heating to 95 C before returning to ice and addition of UDP-Glo detection reagent followed by incubation at lab temperature. […] In addition a UDP standard curve is run alongside each set of plate tests.
Making use of the ELISA assay it is then possible to calculate a specific activity (e.g. in Relative Luminescence Units (RLU)/min/ug bx protein) based upon the amount of each mutant bx9 polypeptide expressed in each well. […] The specific activity of the various test mutant extracts on the same plate are then expressed as a fraction of the specific activity of the w/t bx9 and thus the ‘improvement factor’ versus the w/t expressed as a decimal where, for example, ‘0.5’ means half the specific activity of the wild type and 2.0 means twice the specific activity of the wild type. However, as will be readily apparent to the skilled man, particularly in cases where the UDP assay signal was low (with poor signal to noise versus the background) and/or the ELISA measurement of bx protein also low such a method is prone to generate spurious high specific activity numbers and uncertain numbers.

Molecule | Most Preferred amino acid substitutions and (IF) based on RLU/min/ul | Preferred amino acid substitutions and (IF) based on RLU/min/ul
B7 | K,R(2.0) | –
B8 | – | T,C,L,M(1.0)
B9 | – | T,C,L,M(1.0)
B10 | A,V(2.0) | –
B11 | – | L(1.5)
B12 | – | C(1.0)
B13 | – | S,T,F,W(1.5)
B14 | – | V(1.0)
B15 | – | S,T,V(1.0)
B16 | – | S,T,V(1.0)
B17 | A,V(2.0) | –
B18 | – | S,T,F,W(1.5)
B19 | – | S,T,V(1.0)
B20 | – | T,C,L,M(1.0)
B21 | – | T,C,L,M(1.0)
B22 | – | S,T,F,W(1.5)
B23 | – | S,T,F,W(1.5)
